Target: GLP-1R (Homo sapiens, UniProt P43220)
Assay: cAMP response element luciferase reporter gene assay in GLP-1R+ CHO-K1 cells
Assay type: cell-based
Details: 1 μM of the ligand, Figure 3A

Sequence of GLP-1R (P43220 24-463): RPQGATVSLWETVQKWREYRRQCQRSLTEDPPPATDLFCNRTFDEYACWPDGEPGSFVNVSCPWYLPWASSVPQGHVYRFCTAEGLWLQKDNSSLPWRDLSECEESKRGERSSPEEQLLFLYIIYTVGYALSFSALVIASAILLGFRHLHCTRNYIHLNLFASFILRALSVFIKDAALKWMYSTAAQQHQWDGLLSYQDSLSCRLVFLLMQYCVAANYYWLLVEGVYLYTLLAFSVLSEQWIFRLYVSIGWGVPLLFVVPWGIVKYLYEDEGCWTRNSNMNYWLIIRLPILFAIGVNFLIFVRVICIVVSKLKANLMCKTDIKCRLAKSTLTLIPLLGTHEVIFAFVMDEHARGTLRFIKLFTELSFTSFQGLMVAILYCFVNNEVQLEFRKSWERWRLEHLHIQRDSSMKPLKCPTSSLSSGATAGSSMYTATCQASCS

With “exendin-4_9-39: exendin-4 fragment 9-39 used at 1 μM to inhibit GLP-1R activation” the “inhibition of GLP-1 agonism at GLP-1R” value was “inhibited”.
